Experimental data as given in paper PMC10259393, “The structural basis of the multi-step allosteric activation of Aurora B kinase” (eLife, 2023).
Non-standard residues stand in square brackets, D forms with d. pS = N[C@@H](COP(=O)(O)O)C(=O)O

Key:
[1] = target: IN-box (C-terminal part of INCENP) IN-box, 790-856; assay: mass photometry at 10 nM complex; conditions: reference: [Aurora B/IN-box]all-P, as purified; sites T248,S849,S850
[2] = target: T1, Aurora B (59-361 aa) from X. laevis, phosphorylated at Thr248, of the [Aurora B/IN-box]^IN-ΔC construct (X. laevis, UniProt Q6DE08 59-361, phosphothreonine at 248); assay: co-purification; purified complex after ligation with the synthetic peptide: Superdex S200 16/60, then Ni column by the 6xHis of the ligated IN-box, eluted with imidazole; conditions: both partners purified
T1 construct: Aurora B kinase, Xenopus laevis, residues 59-361; also called Aurora B of [Aurora B/IN-box]^loop-P; not shown: 6xHis, N-terminal, cleaved; GB1 domain of streptococcal protein G, N-terminal, cleaved

[3] = target: T2, Aurora B (59-361 aa) from X. laevis, dephosphorylated, of the [Aurora B/IN-box]^IN-ΔC construct (X. laevis, UniProt Q6DE08 59-361); assay: as above; conditions: both partners purified
T2 construct: Aurora B kinase, Xenopus laevis, residues 59-361; Thr248 not phosphorylated; also called Aurora B of [Aurora B/IN-box]^IN-P; not shown: 6xHis, N-terminal, cleaved; GB1 domain of streptococcal protein G, N-terminal, cleaved

## Aurora B 60-361 [Aurora B/IN-box]no-P, λ-phosphatase treated
[1]
  other: complex molecular weight: same; reference ~44

B1: Semisynthetic IN-box (790-858, Phe845Cys) with unphosphorylated TSS motif and C-terminal 6xHis, as in [Aurora B/IN-box]^loop-P (domain or fragment, X. laevis)
chain: DESQPRKPIPAWASGNLLTQAIRQQYYKPIDVDRMYGTIDSPKLEELFNKSKPRYCKRTSSAVWHSPPL
notes: INCENP, Xenopus laevis, IN-box residues 790-844; synthetic peptide, IN-box residues 845-858 of X. laevis INCENP with Cys in place of Phe845 (scar of the ligation); also called IN-box of [Aurora B/IN-box]^loop-P; IN-box^Phe845Cys; source: IN-box^ΔC (E. coli, purified, C-terminal thioester) ligated with a synthetic peptide; purified (Superdex S200, Ni column); not shown: 6xHis, C-terminal, kept
[2]
  binding result: binds

B2: Semisynthetic IN-box (790-858, Phe845Cys) phosphorylated at Ser849 and Ser850 with C-terminal 6xHis, as in [Aurora B/IN-box]^IN-P (domain or fragment, X. laevis)
chain: DESQPRKPIPAWASGNLLTQAIRQQYYKPIDVDRMYGTIDSPKLEELFNKSKPRYCKRT[pS][pS]AVWHSPPL-{H2N-H2N-H2N-H2N-H2N-H2N}
notes: INCENP, Xenopus laevis, IN-box residues 790-844; synthetic peptide, IN-box residues 845-858 of X. laevis INCENP with Cys in place of Phe845 (scar of the ligation), both serines of the TSS motif phosphorylated; also called IN-box of [Aurora B/IN-box]^IN-P; IN-box^Phe845Cys; source: IN-box^ΔC (E. coli, purified, C-terminal thioester) ligated with a synthetic phosphopeptide; purified (Superdex S200, …)
[3]
  binding result: binds
